From paper PMC7355005 (Proceedings of the National Academy of Sciences of the …, 2020)
Several values for one entry are separate records, joined by “and”; a condition that tells them apart may be missing. Equal values may be shown once.

Key:
Human hemoglobin (Hb) = Human hemoglobin (Hb) (human, UniProt P69905;P68871); assay: mass photometry
mass photometry = target: the molecule itself; assay: mass photometry
native MS = target: the molecule itself; assay: native MS

Chain of Human hemoglobin (Hb) (P69905 whole entry, chain 1 of 2): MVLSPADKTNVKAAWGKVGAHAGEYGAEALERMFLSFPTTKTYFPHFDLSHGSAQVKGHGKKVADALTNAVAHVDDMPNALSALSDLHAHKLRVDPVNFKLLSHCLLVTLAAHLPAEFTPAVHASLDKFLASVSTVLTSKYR
Chain of Human hemoglobin (Hb) (P68871 whole entry, chain 2 of 2): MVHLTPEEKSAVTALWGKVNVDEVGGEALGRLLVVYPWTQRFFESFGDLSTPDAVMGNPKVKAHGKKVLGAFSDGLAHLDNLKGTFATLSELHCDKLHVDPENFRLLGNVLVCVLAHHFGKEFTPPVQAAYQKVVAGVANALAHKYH

B1: Haptoglobin 1-1 (Hp 1-1), dimer of two α1β units (complex)
chain 1: VDSGNDVTDIADDGCPKPPEIAHGYVEHSVRYQCKNYYKLRTEGDGVYTLNNEKQWINKAVGDKLPECEAVCGKPKNPANPVQ
chain 2: ILGGHLDAKGSFPWQAKMVSHHNLTTGATLINEQWLLTTAKNLFLNHSENATAKDIAPTLTLYVGKKQLVEIEKVVLHPNYSQVDIGLIKLKQKVSVNERVMPICLPSKDYAEVGRVGYVSGWGRNANFKFTDHLKYVMLPVADQDQCIRHYEGSTVPEKKTPKSPVGVQPILNEHTFCAGMSKYQEDTCYGDAGSAFAVHDLEEDTWYATGILSFDKSCAVAEYGVYVKVTSIQDWVQKTIAEN
modifications: N-glycans at Asn184, Asn207, Asn211 and Asn241
stoichiometry N (Human hemoglobin (Hb)): 2 Hb(αβ) dimers per Hp 1-1 dimer
stoichiometry N (mass photometry): 2 Hp (αβ) units

B2: Haptoglobin 2-1 (Hp 2-1) oligomers from the serum of a single heterozygote donor (complex)
chain 1: VDSGNDVTDIADDGCPKPPEIAHGYVEHSVRYQCKNYYKLRTEGDGVYTLNNEKQWINKAVGDKLPECEAVCGKPKNPANPVQ
chain 2: VDSGNDVTDIADDGCPKPPEIAHGYVEHSVRYQCKNYYKLRTEGDGVYTLNDKKQWINKAVGDKLPECEADDGCPKPPEIAHGYVEHSVRYQCKNYYKLRTEGDGVYTLNNEKQWINKAVGDKLPECEAVCGKPKNPANPVQ
chain 3: ILGGHLDAKGSFPWQAKMVSHHNLTTGATLINEQWLLTTAKNLFLNHSENATAKDIAPTLTLYVGKKQLVEIEKVVLHPNYSQVDIGLIKLKQKVSVNERVMPICLPSKDYAEVGRVGYVSGWGRNANFKFTDHLKYVMLPVADQDQCIRHYEGSTVPEKKTPKSPVGVQPILNEHTFCAGMSKYQEDTCYGDAGSAFAVHDLEEDTWYATGILSFDKSCAVAEYGVYVKVTSIQDWVQKTIAEN
modifications: N-glycans at Asn184, Asn207, Asn211 and Asn241
stoichiometry N (native MS): 3 Hp (αβ) units and 4 Hp (αβ) units and 5 Hp (αβ) units

B3: Haptoglobin 2-2 (Hp 2-2), cyclic (α2)n(β)n oligomers (complex)
chain 1: VDSGNDVTDIADDGCPKPPEIAHGYVEHSVRYQCKNYYKLRTEGDGVYTLNDKKQWINKAVGDKLPECEADDGCPKPPEIAHGYVEHSVRYQCKNYYKLRTEGDGVYTLNNEKQWINKAVGDKLPECEAVCGKPKNPANPVQ
chain 2: ILGGHLDAKGSFPWQAKMVSHHNLTTGATLINEQWLLTTAKNLFLNHSENATAKDIAPTLTLYVGKKQLVEIEKVVLHPNYSQVDIGLIKLKQKVSVNERVMPICLPSKDYAEVGRVGYVSGWGRNANFKFTDHLKYVMLPVADQDQCIRHYEGSTVPEKKTPKSPVGVQPILNEHTFCAGMSKYQEDTCYGDAGSAFAVHDLEEDTWYATGILSFDKSCAVAEYGVYVKVTSIQDWVQKTIAEN
modifications: N-glycans at Asn184, Asn207, Asn211 and Asn241
stoichiometry N (Human hemoglobin (Hb)): 1 Hb(αβ) dimer per Hp (αβ) monomer
stoichiometry N (native MS): < 7 Hp (αβ) units
